B1: hnRNP A18 motif 1 fluorescein (ssRNA)
RNA: GCAGAUCCAGGGUGGGAUUUUCUUGAGGAAGUUACAAAUAAGCUUGUUACA
B2: hnRNP A18 motif 1 biotin (ssRNA)
RNA: B1 RNA

Assays:
[1] = molecular target: T1, hnRNP A18 (CIRP), full length, GST fusion (UniProt Q14011 Q14011:1-172); test: FP; 25 C, 30 min; binding competed by small molecules (compound 1 IC50 6.4 uM; compounds 5, 2, 3, 4 IC50 2.9, 15, 13, 39 uM); no Kd given; details: tags: GST; label: 3' T-fluorescein (position 5 of thymine, 6-carbon spacer)
T1 sequence: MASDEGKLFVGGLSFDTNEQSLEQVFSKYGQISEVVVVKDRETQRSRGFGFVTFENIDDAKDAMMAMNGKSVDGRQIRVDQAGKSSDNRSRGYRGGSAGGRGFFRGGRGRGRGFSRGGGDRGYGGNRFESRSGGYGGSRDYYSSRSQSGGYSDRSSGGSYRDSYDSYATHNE

[2] = molecular target: T2, hnRNP A18 (CIRP), full length, His-tagged (UniProt Q14011 Q14011:1-172); test: EMSA; 1 ug protein in 20 ul; competed by compounds 1-6; details: tags: His; label: 3' biotin
T2 sequence: T1 sequence
Experimental: RNA band shifts were performed according to the manufacturer recommendations (LightShift Chemiluminescent RNA EMSA kit, Thermo Scientific, Rockford, Ill.). Briefly recombinant His-hnRNP A18 or His-hnRNP A1 (1 μg) were incubated with biotinylated RNA (hnRNP A18 motif 1, IRE 28 or 51 nucleotides) in 20 μl and run on native polyacrylamide gels transfer to nylon probes and hybridize with streptavidin HRP antibody.

Row | Binder | binding result [1] | binding result [2]
1 | B1 | binds | 
2 | B2 |  | binds

Source: patent publication US20200368208, “Protein Translation Inhibitors and Uses Thereof” (University of Baltimore, Maryland, published 2020)
